Biological target: histones (chicken (endogenous in LMH))
Experiment: high-salt co-extraction with histones from chromatin; LMH cells 48 h post-transfection; chromatin pelleted and incubated in 50 mM Tris-HCl pH 8.0, 2.5 M NaCl, 0,05% NP40 for 30 min at 4°C; supernatant (histones fraction) on 10% SDS-PAGE, colloidal coomassie blue and immunoblot with anti-VP22 L13a

## VP22 of Marek's disease virus tagged with eGFP at its C-terminus (natural protein)
  fold less VP22 in the histone extract than from peGFP-UL49 cells: 4.5 fold

— PMC4063868
